Measurements reported in patent US10208288B2, “Differentiation of human embryonic stem cells into pancreatic endocrine cells” (Janssen Biotech, Inc., priority 2012, dated 2019).

B1: Epigen: protein factor, R & D Systems catalogue number 6629-EP-025 (protein, UniProt Q6UW88 23-154, looked up)
Epigen: AAVTVTPPITAQQGNWTVNKTEADNIEGPIALKFSHLCLEDHNSYCINGACAFHHELEKAICRCFTGYTGERCEHLTLTSYAVDSYEKYIAIGIGVGLLLSGFLVIFYCYIRKRCLKLKSPYNVCSGERRPL
B2: Activin-C: protein factor, R & D Systems catalogue number 4879-AC-010 (protein, UniProt P55103 237-352, looked up)
Inhibin beta C chain: GIDCQGGSRMCCRQEFFVDFREIGWHDWIIQPEGYAMNFCIGQCPLHIAGMPGIAASFHTAVLNLLKANTAAGTTGGGSCCVPTARRPLSLLYYDRDSNIVKTDIPDMVVEACGCS
B3: semaphorin 3a: protein factor, R & D Systems catalogue number 1250-S3-025 (protein, UniProt Q14563 21-771, looked up)
Semaphorin-3A: NYQNGKNNVPRLKLSYKEMLESNNVITFNGLANSSSYHTFLLDEERSRLYVGAKDHIFSFDLVNIKDFQKIVWPVSYTRRDECKWAGKDILKECANFIKVLKAYNQTHLYACGTGAFHPICTYIEIGHHPEDNIFKLENSHFENGRGKSPYDPKLLTASLLIDGELYSGTAADFMGRDFAIFRTLGHHHPIRTEQHDSRWLNDPKFISAHLISESDNPEDDKVYFFFRENAIDGEHSGKATHARIGQICKNDFGGHRSLVNKWTTFLKARLICSVPGPNGIDTHFDELQDVFLMNFKDPKNPVVYGVFTTSSNIFKGSAVCMYSMSDVRRVFLGPYAHRDGPNYQWVPYQGRVPYPRPGTCPSKTFGGFDSTKDLPDDVITFARSHPAMYNPVFPMNNRPIVIKTDVNYQFTQIVVDRVDAEDGQYDVMFIGTDVGTVLKVVSIPKETWYDLEEVLLEEMTVFREPTAISAMELSTKQQQLYIGSTAGVAQLPLHRCDIYGKACAECCLARDPYCAWDGSACSRYFPTAKRRTRRQDIRNGDPLTHCSDLHHDNHHGHSPEERIIYGVENSSTFLECSPKSQRALVYWQFQRRNEERKEEIRVDDHIIRTDQGLLLRSLQQKDSGNYLCHAVEHGFIQTLLKVTLEVIDTEHLEELLHKDDDGDGSKTKEMSNSMTPSQKVWYRDFMQLINHPNLNTMDEFCEQVWKRDRKQRRQRPGHTPGNSNKWKHLQENKKGRNRRTHEFERAPRSV
B4: Activin-A: protein factor, R & D Systems catalogue number 338-AC-010 (protein, UniProt P08476 311-426, looked up)
Inhibin beta A chain: GLECDGKVNICCKKQFFVSFKDIGWNDWIIAPSGYHANYCEGECPSHIAGTSGSSLSFHSTVINHYRMRGHSPFANLKSCCVPTKLRPMSMLYYDDGQNIIKKDIQNMIVEECGCS

Tested on: cells of the human embryonic stem cell line H1 differentiated to stage 5
Experiment: Real-time PCR of pancreatic endoderm/endocrine genes after factors spiked into stage 5 media
Format: cell-based
Settings: for expression of hormones / mRNA expression of NKX6.1: Semaphorin 3a 50 ng/ml; for expression of hormones: Epigen 20 ng/ml at S5, compared to untreated cultures; for mRNA expression of NKX6.1 / mRNA expression of insulin: factor spiked at day 1 of stage 5, mRNA at day 3 of S5, vs control cultures, Table I: Ephrin-A4 100 ng/ml; for mRNA expression of NKX6.1: Epigen 20 ng/ml, FIG. 1F; for expression of somatostatin / expression of ghrelin / expression of glucagon: 20 ng/ml at S5, mRNA at day 3 of S5, vs control; for expression of somatostatin: FIG. 1B; for expression of ghrelin: FIG. 1C; for expression of glucagon: FIG. 1D; for mRNA expression of insulin: Activin A and Activin C 20 ng/ml, FIG. 1A
Description: Cells of the human embryonic stem cell line H1 (hESC H1, passage 40) were seeded as single cells at 1×10^5 cells/cm^2 on MATRIGEL™ (1:30 dilution; BD Biosciences, NJ)-coated dishes in mTeSR®1 media (StemCell Technologies, Vancouver, Canada) supplemented with 10 μM of Y27632 (Rock inhibitor, Catalog No. Y0503, SigmaAldrich, St. Louis, Mo.). Forty-eight hours post seeding, cultures were washed in incomplete PBS (phosphate buffered saline without Mg or Ca). Cultures were differentiated into pancreatic endoderm/endocrine lineages as follows: • a) Stage 1 (Definitive Endoderm (DE)—3 days): Cells were cultured for one day in stage 1 media: MCDB-131 medium (Catalog No. 10372-019, Invitrogen, Carlsbad, Calif.) supplemented with 0.1% fatty acid-free BSA (Catalog No. 68700, Proliant, Ankeny, Iowa), 0.0012 g/ml sodium bicarbonate (Catalog No. S3187, SigmaAldrich, St. Louis, Mo.), 1× GlutaMax™ (Invitrogen Catalog No. 35050-079), 4.5 mM D-Glucose (SigmaAldrich Catalog No. G8769), 100 ng/ml GDF8 (R&D Systems, Minneapolis, Minn.) and 1 μM MCX compound (a GSK3B inhibitor, 14-Prop-2-en-1-yl-3,5,7,14,17,23,27-heptaazatetracyclo [19.3.1.1˜2,6˜0.1˜8,12˜]heptacosa-1(25),2(27),3,5,8(26),9,11,21,23-nonaen-16-one, US Patent Application Publication No. 2010-0015711; incorporated herein by reference in its entirety). Cells were then cultured for additional day in MCDB-131 medium supplemented with 0.1% fatty acid-free BSA, 0.0012 g/ml sodium bicarbonate, 1× GlutaMax™, 4.5 mM D-Glucose, 100 ng/ml GDF8, and 0.1 μM MCX compound. Cells were then cultured for an additional day in MCDB-131 medium supplemented with 0.1% fatty acid-free BSA, 0.0012 g/ml sodium bicarbonate, 1× GlutaMax™, 4.5 mM D-Glucose, and 100 ng/ml GDF8, then • b) Stage 2 (Primitive gut tube—2 days): Cells were treated for two days with MCDB-131 medium supplemented with 0.1% fatty acid-free BSA; 0.0012 g/ml sodium bicarbonate; 1× GlutaMax™; 4.5 mM D-Glucose; 0.25 mM ascorbic acid (Sigma, St. Louis, Mo.) and 25 ng/ml FGF7 (R & D Systems, Minneapolis, Minn.), then • c) Stage 3 (Foregut—2 days): Cells were treated with MCDB-131 medium supplemented with a 1:200 dilution of ITS-X (Invitrogen); 4.5 mM Glucose; 1× GlutaMax™; 0.0017 g/ml sodium bicarbonate; 2% fatty acid-free BSA; 0.25 μM SANT-1 (Sigma, St. Louis, Mo.); 10 ng/ml of Activin-A (R & D Systems); 1 μM retinoic acid (RA; Sigma); 25 ng/ml FGF7; 0.25 mM ascorbic acid; 200 nM TPB (a PKC activator; Catalog No. 565740; EMD Chemicals, Gibstown, N.J.); 10 μM forskolin (FSK, Sigma), and 100 nM LDN (a BMP receptor inhibitor; Catalog No. 04-0019; Stemgent; San Diego, Calif.) for day 1. On day 2, cells were treated with MCDB-131 medium supplemented with a 1:200 dilution of ITS-X; 4.5 mM Glucose; 1× GlutaMax™; 0.0017 g/ml sodium bicarbonate; 2% fatty acid-free BSA; 0.25 μM SANT-1; 10 ng/ml of Activin A; 1 μM RA; 25 ng/ml FGF7; 0.25 mM ascorbic acid, 200 nM TPB, 10 μM forskolin and 10 nM LDN, then • d) Stage 4 (Pancreatic foregut precursor—2 days); Cells were treated with MCDB-131 medium supplemented with a 1:200 dilution of ITS-X; 4.5 mM Glucose; 1× GlutaMax™; 0.0015 g/ml sodium bicarbonate; 2% fatty acid-free BSA; 0.25 μM SANT-1; 50 nM RA; 50 nM LDN-193189; 10 μM forskolin; 0.25 mM ascorbic acid; and 100 nM TPB for two days, then • e) Stage 5 (Pancreatic endoderm/endocrine—3 days): Stage 4 cells were treated with MCDB-131 medium supplemented with a 1:200 dilution of ITS-X; 20 mM Glucose; 1× GlutaMax™; 0.0015 g/ml sodium bicarbonate; 2% fatty acid-free BSA; 0.25 μM SANT-1; 50 nM RA; 10 μM forskolin; 0.25 mM ascorbic acid for three days, with the addition of 100 nM ALk5 inhibitor SD-208 (disclosed in Molecular Pharmacology 2007, 72:152-161) for days 2-3 only.
At day 1 of stage 5, the factors listed in Table I, below, were spiked into the media and upon completion of S5 (day 3 of stage 5) mRNA was collected for PCR analysis of relevant pancreatic endoderm/endocrine genes. As a control, cultures were treated only with the S5 media listed above. […]

| Molecule | expression of hormones | mRNA expression of NKX6.1 | expression of somatostatin | expression of ghrelin | expression of glucagon | mRNA expression of insulin |
| --- | --- | --- | --- | --- | --- | --- |
| B1 | not affecting | enhanced | – | – | – | – |
| B2 | – | – | significantly enhanced | suppressing | suppressing | suppressing |
| B3 | not affecting | enhanced | – | – | – | – |
| B4 | – | – | significantly enhanced | suppressing | suppressing | suppressing |
